# Results taken from patent US20240002509A1.
# Target: human FcγR1A (human) (UniProt P12314)
# Assay: SPR (Biacore T200), antibody amine-coupled on CM5 (~950 RU), receptor as analyte, 25 C
# Sequence of UniProt P12314 (P12314 16-288 limits assumed): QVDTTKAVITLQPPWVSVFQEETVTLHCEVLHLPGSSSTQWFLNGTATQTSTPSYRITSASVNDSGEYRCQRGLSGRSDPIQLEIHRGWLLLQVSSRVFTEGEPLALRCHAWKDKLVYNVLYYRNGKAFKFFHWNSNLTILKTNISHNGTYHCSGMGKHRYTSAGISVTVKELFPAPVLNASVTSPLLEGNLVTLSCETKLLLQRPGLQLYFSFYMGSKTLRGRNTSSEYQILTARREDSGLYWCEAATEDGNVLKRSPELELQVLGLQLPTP
row,Substance,Maximum response at 100 nM hFcgammaRIA (RU)
1,LALASKPA-IgG1 (L234A/L235A/S267K/P329A) anti-CD3 antibody,9
2,LALAGA-IgG1 (L234A/L235A/G237A) anti-CD3 antibody,15
3,DANAPA-IgG1 (D265A/N297A/P329A) anti-CD3 antibody,11
4,GADAPA-IgG1 (G237A/D265A/P329A) anti-CD3 antibody,16
5,GADAPASK-IgG1 (G237A/D265A/P329A/S267K) anti-CD3 antibody,10
6,DAPASK-IgG1 (D265A/P329A/S267K) anti-CD3 antibody,13
7,LALAPG-IgG1 (L234A/L235A/P329G) anti-CD3 antibody,18
